Assay results reported in the supplement of paper PMC7125110.
± gives the standard error. For part of these data: Variants at the floor of the assay were thinned out.

B1: glmS ribozyme (parent)
chain: AUAAAAGCGCCAGAACUACAGAAAUGUAGUUGACGAGGAGGAGGUUUAUCGAAUUUUCGGCGGAUGCCUCCAAA

How the values were obtained:
Settings in all cases: with glucosamine-6-phosphate
[1] = variants of: B1; assay: kcat; higher = faster cleavage; RNA array
Outline: (§1)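 E. coli RNA polymerase transcribed barcoded ribozyme variants in situ on sequenced MiSeq chips, which were tracked via a hybridised Cy3 probe at 37 °C. Tiles were imaged over ~14 h after glucosamine-6-phosphate (40 μM to 10 mM) in HEPES/KCl/Mg(OAc)2 buffer was flowed in. Normalised per-tile medians were fit to one- or two-exponential decays for kobs, and kcat and KM came from weighted Michaelis–Menten fits.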

[2] = variants of: B1; assay: KM; higher = weaker cofactor use; RNA array
Outline: as §1

[3] = variants of: B1; assay: self-cleavage kobs at 160 uM GlcN6P; higher = faster cleavage; RNA array
Outline: as §1

[4] = variants of: B1; assay: self-cleavage kobs at 640 uM GlcN6P; higher = faster cleavage; RNA array
Outline: as §1

[5] = variants of: B1; assay: self-cleavage kobs at 2500 uM GlcN6P; higher = faster cleavage; RNA array
Outline: as §1

[6] = variants of: B1; assay: self-cleavage kobs at 10000 uM GlcN6P; higher = faster cleavage; RNA array
Outline: as §1

[7] = variants of: B1; assay: self-cleavage kobs at 40 uM GlcN6P; higher = faster cleavage; RNA array
Outline: as §1

Row | Variant | kcat [1] | KM [2] | self-cleavage kobs at 160 uM GlcN6P [3] | self-cleavage kobs at 640 uM GlcN6P [4] | self-cleavage kobs at 2500 uM GlcN6P [5] | self-cleavage kobs at 10000 uM GlcN6P [6] | self-cleavage kobs at 40 uM GlcN6P [7]
1 | A15G C61U | 1.94e-05 ± 1e-06 s⁻¹ | 631 ± 280 µM |  |  |  |  | 
2 | A14U C16G | 0.000881 ± 0.00019 s⁻¹ | 1840 ± 670 µM | 5.83e-05 ± 1.7e-05 s⁻¹ | 0.000263 ± 3.3e-05 s⁻¹ | 0.000429 ± 6.7e-05 s⁻¹ | 0.000865 ± 0.00015 s⁻¹ | 
3 | G41U U46C | 8.91e-05 ± 1.3e-06 s⁻¹ | 676 ± 50 µM |  | 4.34e-05 ± 1.9e-05 s⁻¹ | 7.05e-05 ± 1.8e-05 s⁻¹ | 8.33e-05 ± 1.3e-05 s⁻¹ | 
4 | A14U C70U C71G | 4.59e-05 ± 1.2e-05 s⁻¹ |  |  | 6.53e-05 ± 1.7e-05 s⁻¹ | 3.73e-05 ± 1.3e-05 s⁻¹ | 3.81e-05 ± 1.8e-05 s⁻¹ | 
5 | A12C C71U | 0.0215 ± 0.0089 s⁻¹ |  | 0.00112 ± 0.00015 s⁻¹ | 0.00448 ± 0.00062 s⁻¹ | 0.0206 ± 0.0035 s⁻¹ | 0.0164 ± 0.0023 s⁻¹ | 0.000587 ± 7e-05 s⁻¹
6 | C10A C58U | < 1e-05 s⁻¹ |  |  | < 1e-05 s⁻¹ |  |  | 
7 | U31G U46A | 0.000771 ± 0.00021 s⁻¹ |  | 0.000124 ± 3.6e-05 s⁻¹ | 0.000258 ± 6.7e-05 s⁻¹ | 0.000954 ± 0.00016 s⁻¹ | 0.000614 ± 0.0001 s⁻¹ | 
8 | U55C C61G | < 1e-05 s⁻¹ |  |  |  |  | < 1e-05 s⁻¹ | < 1e-05 s⁻¹
9 | A15C G32C | 0.000182 ± 5.4e-06 s⁻¹ | 3300 ± 240 µM |  | 3.08e-05 ± 1e-05 s⁻¹ | 7.51e-05 ± 2e-05 s⁻¹ | 0.000138 ± 1.7e-05 s⁻¹ | 
10 | C11U G66U | 4.89e-05 ± 2.1e-05 s⁻¹ |  |  |  | 6.45e-05 ± 1e-05 s⁻¹ | 2.69e-05 ± 1.2e-05 s⁻¹ | < 1e-05 s⁻¹
11 | G62C C68G | 1.08e-05 ± 2.7e-06 s⁻¹ |  |  |  |  | < 1e-05 s⁻¹ | 
12 | A14C A15G G40U | 0.000605 ± 0.0002 s⁻¹ | 5380 ± 2700 µM |  | 8.18e-05 ± 1.4e-05 s⁻¹ | 0.000171 ± 2.4e-05 s⁻¹ | 0.000428 ± 7.3e-05 s⁻¹ | 
13 | C16A C50A U69C | 3.42e-05 ± 1.5e-05 s⁻¹ |  |  |  | 5.24e-05 ± 2.3e-05 s⁻¹ |  | 
14 | C11U U65G | 0.000263 ± 6.3e-05 s⁻¹ | 2580 ± 1200 µM |  | 6.28e-05 ± 3.1e-05 s⁻¹ |  | 0.000227 ± 9.2e-05 s⁻¹ | < 1e-05 s⁻¹
15 | G43U A53C | 2.22e-05 ± 5.7e-07 s⁻¹ | 7310 ± 400 µM |  |  |  |  | 
16 | G43U A53U | 2.65e-05 ± 2.2e-06 s⁻¹ | 2760 ± 880 µM | < 1e-05 s⁻¹ |  |  |  | 
17 | C58U C68A | 3.52e-05 ± 1.5e-05 s⁻¹ |  |  |  | 5.08e-05 ± 2.1e-05 s⁻¹ |  | 
18 | U47C A52U | 0.00034 ± 5.8e-05 s⁻¹ | 3930 ± 1200 µM |  | 3.84e-05 ± 1.6e-05 s⁻¹ | 0.000145 ± 2.3e-05 s⁻¹ | 0.000231 ± 4.7e-05 s⁻¹ | 
19 | U49C C50U | < 1e-05 s⁻¹ |  |  |  |  | < 1e-05 s⁻¹ | < 1e-05 s⁻¹

Row | Variant | kcat [1] | KM [2] | self-cleavage kobs at 160 uM GlcN6P [3] | self-cleavage kobs at 640 uM GlcN6P [4] | self-cleavage kobs at 2500 uM GlcN6P [5] | self-cleavage kobs at 10000 uM GlcN6P [6] | self-cleavage kobs at 40 uM GlcN6P [7]
20 | G29A G38A C67A | 1.79e-05 ± 4.1e-06 s⁻¹ |  |  |  |  |  | 
21 | A53G G60A | 2.61e-05 ± 9.4e-06 s⁻¹ |  |  |  | 3.68e-05 ± 1e-05 s⁻¹ | 1.88e-05 ± 8.7e-06 s⁻¹ | 
22 | U31G C67A | 0.00185 ± 0.00043 s⁻¹ | 740 ± 270 µM | 0.000285 ± 6.9e-05 s⁻¹ | 0.000858 ± 0.00013 s⁻¹ | 0.00123 ± 0.00024 s⁻¹ | 0.00286 ± 0.00065 s⁻¹ | 0.000107 ± 1.8e-05 s⁻¹
23 | U54C U57A | 0.000407 ± 0.00018 s⁻¹ |  |  | 7.93e-05 ± 1.9e-05 s⁻¹ | 0.000112 ± 2.5e-05 s⁻¹ | 0.000297 ± 4.3e-05 s⁻¹ | 
24 | A36U C67G C68G C71U | 6.17e-05 ± 1.7e-05 s⁻¹ |  |  | 0.000121 ± 3e-05 s⁻¹ | 5.55e-05 ± 1.8e-05 s⁻¹ | 5.06e-05 ± 1.6e-05 s⁻¹ | 4.88e-05 ± 1.9e-05 s⁻¹
25 | G37C U45A | 0.00017 ± 2.9e-05 s⁻¹ | 5840 ± 1900 µM |  | 2.56e-05 ± 1.3e-05 s⁻¹ | 4.81e-05 ± 9.9e-06 s⁻¹ | 0.000109 ± 1.6e-05 s⁻¹ | 
26 | A36C C58A | 1.11e-05 ± 3.9e-06 s⁻¹ |  |  |  |  |  | < 1e-05 s⁻¹
27 | C11U C61U | < 1e-05 s⁻¹ | 122 ± 8.2 µM |  | < 1e-05 s⁻¹ |  | < 1e-05 s⁻¹ | < 1e-05 s⁻¹
28 | A39U A42U U55G G66U | 0.000223 ± 7.5e-06 s⁻¹ | 1100 ± 96 µM |  | 8.2e-05 ± 2.5e-05 s⁻¹ | 0.000166 ± 5.4e-05 s⁻¹ | 0.000198 ± 3.5e-05 s⁻¹ | 
29 | C16U C68G | 8.6e-05 ± 6.4e-06 s⁻¹ | 307 ± 140 µM |  | 5.77e-05 ± 1e-05 s⁻¹ | 8.4e-05 ± 1e-05 s⁻¹ | 7.86e-05 ± 9.3e-06 s⁻¹ | 
30 | G37A A42G | 0.00683 ± 0.0013 s⁻¹ | 3670 ± 920 µM | 0.000301 ± 8.8e-05 s⁻¹ | 0.000936 ± 0.00014 s⁻¹ | 0.00251 ± 0.00044 s⁻¹ | 0.00549 ± 0.00094 s⁻¹ | 8.75e-05 ± 1.5e-05 s⁻¹
31 | A14G A42G A53G | 0.0447 ± 0.015 s⁻¹ | 781 ± 340 µM |  |  |  | 0.0405 ± 0.019 s⁻¹ | 0.00216 ± 0.00072 s⁻¹
32 | U31A G63U U69G | 3.2e-05 ± 9.9e-06 s⁻¹ |  |  |  |  |  | 
33 | U45C U57A | 1.9e-05 ± 2.7e-06 s⁻¹ |  |  |  |  |  | 
34 | A12U U47C | 0.0109 ± 0.0038 s⁻¹ | 1790 ± 840 µM | 0.000599 ± 0.0001 s⁻¹ | 0.00299 ± 0.00033 s⁻¹ | 0.0111 ± 0.0021 s⁻¹ | 0.00873 ± 0.0011 s⁻¹ | 0.00032 ± 3.3e-05 s⁻¹
35 | A12C C50A U56A | < 1e-05 s⁻¹ |  |  | < 1e-05 s⁻¹ |  |  | 
36 | G7U A36C A48U | < 1e-05 s⁻¹ |  |  | < 1e-05 s⁻¹ |  |  | 
37 | U30G | 0.0156 ± 0.0046 s⁻¹ | 2400 ± 840 µM | 0.000809 ± 3e-05 s⁻¹ | 0.00344 ± 0.00013 s⁻¹ | 0.00622 ± 0.00028 s⁻¹ | 0.0157 ± 0.00058 s⁻¹ | 0.000284 ± 5.6e-06 s⁻¹
